According to the supplement of paper PMC9170038:

Test system: MS2 coat protein
Test: apparent KD of MS2 coat protein; designed switch direction (-1 OFF switch, 1 ON switch): -1; higher = weaker reporter binding
Procedure, shortened: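 Designed RNA switches with common flanks were made on Illumina chips by stalled E. coli RNA polymerase. Titration with SNAP-549-labelled MS2 coat protein doubled from 0.7 or 1.5 nM up to 3 µM. Apparent KD is each design's median over clusters after curve-fitting normalised fluorescence.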

[1] = Eterna round: R95, input ligand: FMN 200 uM
[2] = Eterna round: R95, input ligand: microRNA oligo, concentration not stated
[3] = Eterna round: R95, input ligand: none
[4] = input ligand: microRNA oligo, concentration not stated

Sequence	apparent KD of MS2 coat protein [1] [nM]	apparent KD of MS2 coat protein [2] [nM]	apparent KD of MS2 coat protein [3] [nM]	apparent KD of MS2 coat protein (input ligand: FMN 200 uM) [nM]	apparent KD of MS2 coat protein (input ligand: none) [nM]	apparent KD of MS2 coat protein [4] [nM]
CAUGAUCUUCGGAUCAUGUACAUGAGGAUCACCCAUGUUACGAGCUGAUUUUCAUACAAGCUUUUUGCUCGUCUUAU [Sensor v3 - Turn-off variant 1 - 30] (puzzle: Sensor v3, turn-off variant 1)	41.5	317	43	–	–	–
ACAAGCUUUUAGAUUCUUAACAUGAGGAUCACCCAUGUGCUCGUCUUAUUGGCCGGCCGGCCGCCGGAAAAGCUUGU (Eterna round: R97, puzzle: Sensor, turn-off variant 1)	–	–	–	24.9	25.3	–
UUGAAACAUACCUCCAUAAACAUGAGGAUCACCCAUGUAAGUGAGGAUAUAGAUUGAUUAGUAUACUAGAAGGCACUUAGAUAU [JR_ExcNG3_Sub043] (Eterna round: R96, puzzle: Exclusion NG 3)	–	–	–	10.4	10.5	10.8
CCGAGGUGGCGGUCCUAUGACAUGAGGAUCACCCAUGUACCUCGCCACGAGCCUUUUGCUCAUCUUAUAAUUCUCGG [Bienve] (puzzle: Sensor v3, turn-off variant 1)	17.4	20.6	17.2	–	–	–
GUACUGACAGGAUAUACAUGAGGAUCACCCAUGUGCCCUUAAUGAUGCAAAGCAUCAAGUAGAAGGGUCUGUAC [Omei Ex3 Model Bachelor's Dilema v22] (Eterna round: R97, puzzle: Exclusion 3)	–	–	–	42.5	32.8	–
AGCCAAGCAGGAUAUGCCCGGGAUAACAUGAGGAUCACCCAUGUGACCGAUUGAUGUCCUGCAGAAGGGCUUGGGA [Erxesoan] (puzzle: Exclusion 5)	–	15.8	–	–	–	–
GGGUGCAGGCUGCGGUCCUACAUGAGGAUCACCCAUGUGGUCCGGUGGCGUGGGUCGCCGGACUUGGCUCGUCUUGU [salish99_S_TOV1_R5_014] (Eterna round: R97, puzzle: Sensor, turn-off variant 1)	–	–	–	91.2	99.3	–
UCGUAGUCAGGAUAUACAUGAGGAUCACCCAUGUAAAAUUUUAAUUUAAUUUUAAGGUGUAGAAGGGACCAUUU [Ex3 #21] (Eterna round: R97, puzzle: Exclusion 3)	–	–	–	46.7	45.8	–
AAAAGGCGUGUGAGGAUAUCCGGAGACGUGAAAAGGGAGAAGGCACAUGAGGAUCACCCAUGUGGAGUGUAAAG [Uscece] (puzzle: Brourd's mod of Exclusion 4)	38.2	18.6	27.5	–	–	–
UCCUGACAUGAGGAUCACCCAUGUAAGGAUAUUAAAACGACUGAACAACUCAGCGGUAUAAGAAGGUACAUGUA [EX1 A.10] (Eterna round: R97, puzzle: Exclusion 1)	–	–	–	12	14.4	–
GGUUGACAUGAGGAUCACCCAUGUGAGGAUAUCGGCUGGUACGUGUUGGCUGGCAUCUCGAGAAGGCACAUAGG [Exclusion 1 V59] (puzzle: Exclusion 1)	–	155	–	–	–	–
GGUCAUCAAGUCAGGAUAUCGUCUGGUCGGUCUGGCGAGAAGGGACAUGAGGAUCACCCAUGUCGACUCAUCAG [Ex4 #11] (Eterna round: R97, puzzle: Brourd's mod of Exclusion 4)	–	–	–	29.2	17.6	–
GGUUGGCGAGGAUAUACAUGAGGAUCACCCAUGUGAGAGAAAAAAGUGAGGACGAAAAGUAGAAGGCGCUGACG [salish99_ex3_r3_032] (puzzle: Exclusion 3)	223	69.1	61.6	–	–	–
UCGCUCCGUGUAGGAUAUCGCCGUUCUAUUCGGCGAGAAGGACAUGAGGAUCACCCAUGUAUGUUAUUAUCACGCGUGGCGCAA [Design 58] (Eterna round: R96, puzzle: Exclusion NG 1)	–	–	–	–	–	12.5
AGUAGAUCUACGCUUGCGUGGAUCUGCAAUGCAGGUGUUACAUGAGGAUCACCCAUGUCCUCAUUUGCUCGUCUUAG [JL turnoff v2 99.06] (puzzle: Sensor v3, turn-off variant 2)	97.4	663	91.9	–	–	–
CUUUACAUAGGAUAUAGUUGCUUUUACAUGAGGAUCACCCAUGUCUCUCCUCUCUCUCUUCUAGAAGGAUGUUUCU [JR_E5_Sub010] (puzzle: Exclusion 5)	–	56	–	–	–	–
AAUUAGUGAGGAUAUUUUAACAGUGGUAGUAGACAGUGGAUGAAGAAGGCACAUGAGGAUCACCCAUGUUAUAA [EX4 #55] (Eterna round: R97, puzzle: Exclusion 4)	–	–	–	164	147	–
AGAAGUAGAAACCGAUCCUACAUGAGGAUCACCCAUGUAGCAAGACGUGCACGCGAAGCUCGUCAGACUACCAGAUG [salish99_TOv1_r3_017] (puzzle: Sensor v3, turn-off variant 1)	297	108	313	–	–	–
GGAAGGCGAGGAUAUACAAUAAAGAAAGCGAAAGACAUGAAACAUGAGGAUCACCCAUGUAGAAGGCGCGGAGA [AK-MS2ROC-r4-exclusion2-9] (Eterna round: R97, puzzle: Exclusion 2)	–	–	–	16.5	13.8	–
GGAUCAUAUGUCAGGAUAUGCAGGUCCUUGGAUCUGCAGAAGGGACAUGAGGAUCACCCAUGUCAUGUAGAUCC [Mat - Exclusion 4 - Eli Mod - D54] (Eterna round: R97, puzzle: Brourd's mod of Exclusion 4)	–	–	–	116	25.3	–
UAGUAUAUCUAUGGGAGUAACAUGAGGAUCACCCAUGUAUGUCUUGUUUUUUGUUCGUCAUAGGCCGGUUGAACGGU [JR_SV3TOV1_Sub027] (puzzle: Sensor v3, turn-off variant 1)	23.3	27.7	26.5	–	–	–
AGAAAGGAAGGAUAUACAAGAAAGCUGGGCAACGUCUCAGAACAUGAGGAUCACCCAUGUAGAAGGUCCAGGAA [Bienqura] (puzzle: Exclusion 2)	–	22.6	–	–	–	–
GCACAUGAGGAUCACCCAUGUCAAUGGGAAUUCCUUCUUCAACAGGAUAUCCGAUGGAGAACGUCGGAGAAGGGUUCGCCAGUA [Eternabot solution 15] (Eterna round: R96, puzzle: Exclusion NG 3)	–	–	–	31.4	25.7	19.5
AAAGCGUCAGGAUAUCCAAUAUAUGACAUGAGGAUCACCCAUGUUUCCACUCGUACCUCCGGAGAAGGGACAAAUA [Ex5 #86] (Eterna round: R97, puzzle: Exclusion 5)	–	–	–	32.5	38.1	–
ACAUGAGGAUCACCCAUGUGAAAACAAUGGCUGACUUUGAGACAGGAUAUUCGUGCAUAUCAAACGAAGAAGGGUCAUUACUGG [Deportation 94 - Jieux - Exclusion NG 3] (Eterna round: R96, puzzle: Exclusion NG 3)	–	–	–	42.2	37.7	26.4
GUGUACGGAGGAUAUAUGUGGUGAGCAUACGCUCAAGCUUCACAUGAGGAUCACCCAUGUAGAAGGCUGUGCAC [JL-ex2-2.13 Brourd mod] (puzzle: Exclusion 2)	–	118	–	–	–	–
